From patent publication US7851182 (CONARIS RESEARCH INSTITUTE, dated 2010) come the findings set out here.

The target of this assay is T1, IL-6/soluble IL-6 receptor complex (human, UniProt P05231 30-212; P08887 20-358, limits assumed).
T1 construct: also called IL-6/sIL-6R complex; IL-6/sIL-6R
As to the kind of experiment: ELISA, coated Fc fusion, IL-6 + sIL-6R titrated, anti-sIL-6R detection. An excerpt:
Comparison of the IL-6/sIL-6R Complex Binding Properties of sgp130Fc and sgp130(D1-D3)S_n-Fc (A) Material The 96-well Microlon microtiter plates were purchased from Greiner Bio-One (Frickenhausen, Germany). Recombinant human IL-6 and soluble IL-6 receptor (sIL-6R) were obtained from BioSource (Solingen, Germany) and R&D Systems (Wiesbaden, Germany), respectively. The primary anti-sIL-6R antibody (clone M91, mouse IgG1) was from Beckman Coulter (Krefeld, Germany). The secondary anti-mouse IgG HRP-conjugated antibody from GE Healthcare (Freiburg, Germany) was the same as in the Western blotting experiments (see Example 1, A and C). Ready-to-use Tetramethylbenzidin (TMB) HRP substrate was purchased from Sigma-Aldrich (Taufkirchen, Germany).
For quality control and comparison between different lots of sgp130Fc variants, a standard ELISA was designed. All steps except for coating were carried out at room temperature, all washing steps were performed three times with a volume of 250 µl, and all conditions were measured in triplicate. A 96 well microtiter plate was coated with 100 ng/Well of original sgp130Fc as an internal standard and an equimolar quantity of sgp130(D1-D3)S_n-Fc in 100 µl PBS at 4° C. overnight. Thus, sgp130Fc and its variants served as capture reagent, while the bound sIL-6R was detected (see below). After washing with 0.05% Tween-20/PBS, wells were blocked with 200 µl/Well 3% BSA/PBS for 2 h. Subsequently, the blocking solution was removed, and wells were incubated for 1 h with a 1:2 dilution series (100 µl/Well) of recombinant human IL-6 (3.2 µg/ml to 50 ng/ml) and sIL-6R (1.6 µg/ml to 25 ng/ml) in 3% BSA/PBS. After washing with 0.05% Tween-20/PBS, wells were incubated with the primary anti-sIL-6R antibody diluted 1:2,000 in 3% BSA/PBS (100 µl/Well) for 1 h. Another series of three washing steps with 0.05% Tween-20/PBS was followed by a 1-h incubation with the secondary anti-mouse IgG HRP-conjugated antibody at 1:5,000 (100 µl/Well). After washing with 0.05% Tween-20/PBS and subsequently with dH_2O, plates were incubated with 100 µl/Well TMB substrate for about 5 min (depending on the intensity of the developing blue colour). The substrate reaction was stopped by adding 100 µl/Well 0.5 M sulfuric acid to the wells. Finally, the $A450$ was measured in a microplate reader.
Background: An ELISA detects its analyte on a solid surface through an enzyme-linked reagent.

B1: sgp130(D1-D3)S2-Fc (Fc fusion)
chain: ELLDPCGYISPESPVVQLHSNFTAVCVLKEKCMDYFHVNANYIVWKTNHFTIPKEQYTIINRTASSVTFTDIASLNIQLTCNILTFGQLEQNVYGITIISGLPPEKPKNLSCIVNEGKKMRCEWDGGRETHLETNFTLKSEWATHKFADCKAKRDTPTSCTVDYSTVYFVNIEVWVEAENALGKVTSDHINFDPVYKVKPNPPHNLSVINSEELSSILKLTWTNPSIKSVIILKYNIQYRTKDASTWSQIPPEDTASTRSSFTVQDLKPFTEYVFRIRCMKEDGKGYWSDWSEEASGITYEDGGGGSGGGGS
notes: D4-D6 replaced by two GGGGS repeats; No tags; not shown: IgG-Fc part; its beginning is printed as 'SCD'; detected with an anti-human IgG (Fc) antibody
In the case of B1, the binding result was “binds”.

B2: sgp130(D1-D3)S1-Fc (Fc fusion)
chain: ELLDPCGYISPESPVVQLHSNFTAVCVLKEKCMDYFHVNANYIVWKTNHFTIPKEQYTIINRTASSVTFTDIASLNIQLTCNILTFGQLEQNVYGITIISGLPPEKPKNLSCIVNEGKKMRCEWDGGRETHLETNFTLKSEWATHKFADCKAKRDTPTSCTVDYSTVYFVNIEVWVEAENALGKVTSDHINFDPVYKVKPNPPHNLSVINSEELSSILKLTWTNPSIKSVIILKYNIQYRTKDASTWSQIPPEDTASTRSSFTVQDLKPFTEYVFRIRCMKEDGKGYWSDWSEEASGITYEDGGGGS
notes: D4-D6 replaced by one GGGGS repeat; No tags; not shown: IgG-Fc part; its beginning is printed as 'SCD'; detected with an anti-human IgG (Fc) antibody
B2: the binding result is recorded as “binds”.

B3: sgp130(D1-D3)S3-Fc (Fc fusion)
chain: ELLDPCGYISPESPVVQLHSNFTAVCVLKEKCMDYFHVNANYIVWKTNHFTIPKEQYTIINRTASSVTFTDIASLNIQLTCNILTFGQLEQNVYGITIISGLPPEKPKNLSCIVNEGKKMRCEWDGGRETHLETNFTLKSEWATHKFADCKAKRDTPTSCTVDYSTVYFVNIEVWVEAENALGKVTSDHINFDPVYKVKPNPPHNLSVINSEELSSILKLTWTNPSIKSVIILKYNIQYRTKDASTWSQIPPEDTASTRSSFTVQDLKPFTEYVFRIRCMKEDGKGYWSDWSEEASGITYEDGGGGSGGGGSGGGGS
notes: D4-D6 replaced by three GGGGS repeats; No tags; not shown: IgG-Fc part; its beginning is printed as 'SCD'; detected with an anti-human IgG (Fc) antibody
Take B3: the binding result is on record as “binds”.

B4: sgp130(D1-D3)S0-Fc (Fc fusion)
chain: ELLDPCGYISPESPVVQLHSNFTAVCVLKEKCMDYFHVNANYIVWKTNHFTIPKEQYTIINRTASSVTFTDIASLNIQLTCNILTFGQLEQNVYGITIISGLPPEKPKNLSCIVNEGKKMRCEWDGGRETHLETNFTLKSEWATHKFADCKAKRDTPTSCTVDYSTVYFVNIEVWVEAENALGKVTSDHINFDPVYKVKPNPPHNLSVINSEELSSILKLTWTNPSIKSVIILKYNIQYRTKDASTWSQIPPEDTASTRSSFTVQDLKPFTEYVFRIRCMKEDGKGYWSDWSEEASGITYED
notes: No spacer between D3 and Fc; V5 and 6xHis tags are not present; also called sgp130(D1-D3)Fc; sgp130(D1-3)Fc; not shown: IgG-Fc part; its beginning is printed as 'SCD'; detected with an anti-human IgG (Fc) antibody
Take B4: the binding result is reported as “binds”.
